In the DeepSol protein solubility set:

Experiment: soluble on expression in E. coli; label from the status in PepcDB or PDB records

| Sequence | soluble on expression in E. coli |
| --- | --- |
| MTIKYLTKNDVLAACIGGSVYASGGGGFYEHGLEMGEAAVALSPVVLKTIDEFEEDDLIITQTAIGAPAGTTDWQMLGKDYIRAVELLLEKHPHPEKIKGILTPQNGKSSSTNGWLSASALGLAVVHATGDIRAHPTGKMGNMGVANDTTYETIQAVSGGRRETGRHIELSVQGTAAYTSKILRIASDLSGGFIAAARHPLTASYIKQNAVIGGLSKAIELGYCILEHQNEDGSSIIDAIVKHTHGEILAKGKVVAKDMTYTDEAFDVGKVKIKTESDNVTLHVQNEFMAVDSQALGRVATYPDVITLFRAKDAKALSTDEISIDEEVVVFKISHKHFPLSTGVKDPSVYPEVENVLGIDLYRHAFKLEHHHHHH | soluble |
| MTILFISDLHLSPLRPDITDCFIDFMQNEAIHAEKLYVLGDLFEFWIGDDDNSPFNVSIKNEFKALTEKGVKCYFIQGNRDFLLNKRFCKETGVELLDDHTVIELDGEKVLIMHGDTLCIDDIKYQEFRAKVHKPWLQWVFNRIPLFIRQRIVKNVQDKIKEKKQTKTLCIMDVTQSEVERVMQEEGVQRLIHGHTHRPDTHTFMSNNKEMTRIVLGDWYSQGSILEYSDKIYSLHKKEFK | not soluble |
| MTIRINNISLDINEDLSLLKNKVAKKLRMSKDEIGDIKIIKESLDARKKNLIKFNYCINIEHEDEEKIVARLNDKDVKIDKVNYDFDFNFGEKKLQHRPVVIGLGPAGLFAALLLAKKGFNPIVFERGEDVDSRTKTVEEFWRTGELNPESNVQFGEGGAGAFSDGKLTTRIKDTRCDYVLDALVRNGAPEEIIYKGKPHVGTDILKNVVKNIREEIKRHGGEVHFNSRFEGIIKKDNKLKGIKVNGEEVPCEVAILALGHSSRDTYEMLFNEGVFMKQKPFAIGVRIEHPQEIINLSQYGEKYANHPRLKAAEYRLAYQSKTLDRAVYSFCMCPGGVVVNASSEEKRLCVNGMSYHARDKENANSALVVTVGPNDFGGDHPLEGMKFQRHYEELAFKLGGGNYNTPVQLVGDFMKDRVTTKLGKVNPSVLSNGYRFEDLRKCLPSYVIDGLKEGITDFDRKIKGFGHSDSVLTGIETRTSAPVRIERNEKLQSISLEGLYPAGEGAGFAGGIVSAAVDGLKVAENIMKEYRVLEHHHHHH | not soluble |
| MTITDKNRLTGEADPRRTSLYGPPSMDALTERALHLARAGRALLGIVGEPGAGKSTFAEQLRARLEKERPGLAVTVSMDGFHLAQKVIEARGQAADKGTIDTFDADGFVALLRRTRAETGDTENTESTVWWPEFDRDLEDPVAGSIEVAPHHRLVIVDGNFLLSAQEPWRQVKGLLDETWFLDALPEPRRERLTRRYISYGFTPEAARAKTLGVDEDTSALIRSTVSRADLVIGEARESGGVSDC | not soluble |
| MTIYVVTPTYARLVQKAELVRLSQTLSLVPRLHWLLVEDAEGPTPLVSGLLAASGLLFTHLVVLTPKAQRLREGEPGWVHPRGVEQRNKALDWLRGRGGAVGGEKDPPPPGTQGVVYFADDDNTYSRELFEEMRWTRGVSVWPVGLVGGLRFEGPQVQDGRVVGFHTAWEPSRPFPVDMAGFAVALPLLLDKPNAQFDSTAPRGHLESSLLSHLVDPKDLEPRAANCTRVLVWHTRTEKPKMKQEEQLQRQGRGSDPAIEV | soluble |
| MTKDRQIKKTKTAIYSAFIALLQKKEYSKITVRDMITLANVGRSTFYAHYESKEMLLKELCEELFHHLFRQKRNVTFEDYLVHILKHFEQNKDSIATLLLSNDPYFLLRFKNELEHDVYPNLRCKYIDKTTIPEVFLKQFVLSSFIETLKWWLHQRQRMSANELLKYYLELIK | soluble |
| MTKHARFSLLPSFIIFSAALLAGCNDQGDTQAHAGEPQVTVHVVETAPLAVTTELPGRTSAFRIAEVRPQVSGIVLKRNFTEGSDVEAGQSLYQIDPATYQADYDSAKGELAKSEAAAAIAHLTVKRYVPLVGTKYISQQEYDQAIADARQADAAVVAAKAAVESARINLAYTKVTSPISGRIGKSNVTEGALVTNGQSTELATVQQLDPIYVDVTQSSNDFMRLKQSVEQGNLHKDSASSTVQLVMENGQVYPIKGTLQFSDVTVDESTGSITLRAVFPNPQHSLLPGMFVRARIDEGVQPNAILVPQQGVTRTPRGDAMVMVVNDKSQVEARNVVAAQAIGDKWLISEGLKPGDKVIVSGLQKARPGVQVKATTDAPAAKTAQ | not soluble |
| MTKITYKVASEHPFPADAAAAAASLAAYEALDDVTKARVDQMVDWIMKNCLWQFHSRAWDRKRQNEGILGIAAKLLAGEPFTPETPEDRCYWVDSVTLQRAYLATCPWLATMSKGDIRALMKELHARVDYLTVTGSLNEELTDLHYLEHHHHHH | not soluble |
| MTKIWTRDGFAENDPWVIETEEVKATGEQKPVLPLADFLVRAAESNDIGLGVLISPADDVNRLEPYLDRIDLVAVSFPAFNDGRGFSHASLLRSRLGFAGEVRAVGDVLIDQVPLMLRTGFTSFAVTNETAIRRLSENRLPEITVYYQPTALPATGGEAYSWRRRAAQ | not soluble |
| MTKKELRAQIRQRNREMLAAENRERWSQSIIERIRRLDIFADAKRIGLYHALPDEPDLTGLLREYVQTKQLFIPRVEGDDIAFYAYTGEADLEAEGAYGIAEPTADAATAILPSSLDLLLVPGVAFDRKGSRMGRGKGYYDRFLPATQVRLIGVTFSYRLLEELPTDPWDRPMDGVITESETLFCLEHHHHHH | soluble |
| MTKKKVYNKRKRKEASIRVLEAIREKRKQQLAENARLEAEQAEQDVAPEPIDVQDPVINAGNIVEDAEPLNVNPSPPQPRKFNFRVANLEIARQAKISQNLMKTSETASTSSPVRQQVKTEIVPRVSQRTIVKTQALPRVNAPVLSSVPAKNPLPPKFVYINTAGLKRKRDDDKNTPSTSNSITLNPSSRGDQTQFIVHLQRTIERLEKEKAALTEKLTMREDEIKVFSVEFVNIQKENVKLMKENKAKESQISNQSIQVRNSWKFADLFKKELQKSRKDVSEVKWKIDKIEKKVGIKKPTPRKKPDVKLINPEDISLMSDRTQDGEDSSDFGSPLAKYLKPDQPSTSSACYGKPFYFESTSSSSRKPITASPGPPGRTQISDQLNTGEVRYVVNSGKPFNFSSESNSRNLKLIPGYIKRPEFRYIKPEGFTSASYKAQSEGMSSFLKTGSSATPENSKKSAHFDMPDISSTPYKSHVVVESDEMNSSSSTIGGFESEKKDNGALGSQKSPMPDIATALHNIFDSKEVQSSSSTTGSSAPPENSKKSDHFDMPDISSTLYRSRVEPISSSSSGSTSTSAPRYVPKPIAQPARYAIPSPGALNALRRPPEWKGQRRHAPSYVKSRESVTFRGCSRFPVTSPHFAKAHLEPVTDGKDDSKIVKYRFVPKRPDFDGEREHKK | not soluble |
| MTKKVGIVDTTFARVDMASIAIKKLKELSPNIKIIRKTVPGIKDLPVACKKLLEEEGCDIVMALGMPGKAEKDKVCAHEASLGLMLAQLMTNKHIIEVFVHEDEAKDDKELDWLAKRRAEEHAENVYYLLFKPEYLTRMAGKGLRQGFEDAGPARE | soluble |
| MTKKYLKVDVVSPLGSVFKGEADMVSLRGSAGEMGIAYGHTELLSTLPAGVVNVRKDQHTDVLYVSGGIVEVTPTRVTIMVDDMERAENLNQAEAEKARARAKEVLKNPDASKLDIEAANKRLKEADARLKALNSSNGLYYSKDD | not soluble |
| MTKLVIDTVGPATSVQDAGRHGAQRYGLPPSGAMDRLSLAAANVLVGNSAFAAAIELGPLGAKLSVRDGAVRLALTGAERPAALDGQPLAFNESFTLAEGQILTLGVARGGVFSYLGIEGGVGGEPMFGSLAVNARAGLGSPYPRPLQAGDAIAVKSAAPSVERRLDLPEQQDTPIRVVLGPQDDEFGAAVEIFLTGEWTMSATSDRMGYRLDGPQISHLHGHNIVSDGTVDGSIQVPGSGQPIVLMPDRGTSGGYPKIATVISADLGRLAQRQPGRPFRFQAVSVEEAQDAYRTMAKLIRSLPDLLRDAQHAIIDLDALLSANVAGTAIDALAAELEHHHHHH | not soluble |
| MTKLVKINYPNIDEDLYYVKLENGLTVYFIKKIGFLEKTAMLTVGFGSLDNKLTVDDESRDAPAGIAHFLEHKLFEDESGGDISLKFTQLGAETNAFTTFNQTSFFFSTASKFQENLELLQYFVLSANITDESVSREKKIIGQEIDMYQDDADYRAYSGILQNLFPKTSLANDIAGSKASIQKITKILLETHHTYFYQPTNMSLFIVGDIDIDETFLAIQRFQTTLSYPDRKRVTVDPLHYYPVIKSSSVDMDVTTAKLVVGFRGYLTLTQHSLLTYRIALKLFLSMLIGWTSKIYHTLYEDGKIDDSFDVDVEIHHNFQFVLISLDTPEPIAMSNYIRQKLATIKISKEFTNEHLNLLKKEMYGDFIQSLDSIEHLTHQFSLYLSDSDKETYFDIPKIIERLTLKDVVTIGKAFFEKADASDFTVFPK | not soluble |
| MTKPAKIGVLLANLGTPDSPTPKSISRYLWQFLTDPRVVDLPRCKWYPLLKAIILPLRSKRIAKNYQAIWTEQGSPLLAISRQQKDALQAYLDNQNIDTQVEIAMTYGNPSMQSAVKNLLKNQVERIIVLPLYPQYSSSTTGAVFDAFANALKEERGLLPFDFIHSYHIDENYINALADSIKVRLKSDEFLLFSYHGIPLRYEKMGDYYREHCKQTTIAVVNKLGLTENQWRMTFQSRFGREEWLQPYTDKFLESAAAQNIQKIAVICPGFSVDCLETIEEIDEENRENFLNNGGQSYQYIPALNVEHAHIEMMGKLILEKLT | not soluble |
| MTKPFAPASARNRDPILSVLQRYFADRQHVLEIGAGTGQHAVHFAAAMPWLRWQASDHPDHLPGMRQWLDEAALPNTPPPVALQAVLTPAPGLAPAPPLPPVQAGTPAGYDAIYSANTLHIMGWPQVQALFAGLPAVMAPQAVLVIYGPFNRDGEFTSDSNRDFDAMLRARDAASGIRDAAEVDALAAQVGLQLVDDVDMPANNRCRVWQRALEHHHHHH | soluble |
| MTKPLNTTQAVIEWVNNTRRYATRLDDEADALLAQLTLAAADESALNAACASHGCVGLYGYAQSAKAHLLTTLCGNENGKLEIITPDRDYDYFSHINPGHAPANMAIRFTRDIFSNESGWPLRLRLISEAELVQIFIAWTSSSPVCRQVEKSIITSRLEKWQSLRQPQPVPGVTAEEVATIASFWRSCLPSARQHIDDATWQHFASLLPALDLTTRAHAWALLWGEQPEITQQWLALAHMLQQTGHAGELAAPLSLLVDHFGLPAENFLTQMALTANDTQSDVVVHPVKEGRLLNAVSLSLDSLALLTRELVLSVENNVLDNVDLLDIPVAPDSHPHPLWRAKLGWMLAHYRQQVQPDVLVICNALASRSQTSTAAHHLLEWVNATQPQHESALPGVVWAITPQDARFATQQNLDEAVQQLMGKPGVHWGTLQALDKHSMQRLVEWLSQATSAPQRQARLQALREQLRGRVRDLLPMFDDARLPVETVIRRLQAQAARHGDLLAGLLPPVQNFEALLSTRQSREEQVCGLFNDAIDLFADEPTRASASEGHETGYQAHKMWINHLRQWAHCRDNAQRLGLEPQMLNAVAEILITASYRLGLPQQLQKTMQREEVSGAQLHAIIGNFIAWLGYANIEEAQRPASRVQKGAAIFAATPRSTMLRLTKLDEQPVHAASRYVYDWLVALYTLANENAGYRHPQDVTDVDRAQLIALIA | soluble |
| MTKPSVGINGFGRIGRLVLRAAVEKDSVNVVAVNDPFISIDYMVYLFQYDSTHGRFKGTVAHEGDYLLVAKEGKSQHKIKVYNSRDPAEIQWGASGADYVVESTGVFTTIEKANAHLKGGAKKVIISAPSADAPMFVVGVNHEKYDHANDHIISNASCTTNCLAPLAKVINDNFGIIEGLMTTVHAVTATQKTVDGPSGKLWRDGRGAGQNIIPASTGAAKAVGKVIPELNGKLTGMAFRVPTPDVSVVDLTARLEKPASLDDIKKVIKAAADGPMKGILAYTEDQVVSTDFVSDTNSSIFDAGASISLNPHFVKLVSWYDNEFGYSNRVVDLISYIATKA | soluble |
